The values below come from patent US20190374506A1 (BETH ISREAL DEACONESS MEDICAL CENTER, published 2019).

B1: Clustered mitochondria protein homolog (other)
chain: MLLNGDCPESLKKEAAAAEPPRENGLDEAGPGDETTGQEVIVIQDTGFSVKILAPGIEPFSLQVSPQEMVQEIHQVLMDREDTCHRTCFSLHLDGNVLDHFSELRSVEGLQEGSVLRVVEEPYTVREARIHVRHVRDLLKSLDPSDAFNGVDCNSLSFLSVFTDGDLGDSGKRKKGLEMDPIDCTPPEYILPGSRERPLCPLQPQNRDWKPLQCLKVLTMSGWNPPPGNRKMHGDLMYLFVITAEDRQVSITASTRGFYLNQSTAYHFNPKPASPRFLSHSLVELLNQISPTFKKNFAVLQKKRVQRHPFERIATPFQVYSWTAPQAEHAMDCVRAEDAYTSRLGYEEHIPGQTRDWNEELQTTRELPRKNLPERLLRERAIFKVHSDFTAAATRGAMAVIDGNVMAINPSEETKMQMFIWNNIFFSLGFDVRDHYKDFGGDVAAYVAPTNDLNGVRTYNAVDVEGLYTLGTVVVDYRGYRVTAQSIIPGILERDQEQSVIYGSIDFGKTVVSHPRYLELLERTSRPLKILRHQVLNDRDEEVELCSSVECKGIIGNDGRHYILDLLRTFPPDLNFLPVPGEELPEECARAGFPRAHRHKLCCLRQELVDAFVEHRYLLFMKLAALQLMQQNASQLETPSSLENGGPSSLESKSEDPPGQEAGSEEEGSSASGLAKVKELAETIAADDGTDPRSREVIRNACKAVGSISSTAFDIRFNPDIFSPGVRFPESCQDEVRDQKQLLKDAAAFLLSCQIPGLVKDCMEHAVLPVDGATLAEVMRQRGINMRYLGKVLELVLRSPARHQLDHVFKIGIGELITRSAKHIFKTYLQGVELSGLSAAISHFLNCFLSSYPNPVAHLPADELVSKKRNKRRKNRPPGAADNTAWAVMTPQELWKNICQEAKNYFDFDLECETVDQAVETYGLQKITLLREISLKTGIQVLLKEYSFDSRHKPAFTEEDVLNIFPVVKHVNPKASDAFHFFQSGQAKVQQGFLKEGCELINEALNLFNNVYGAMHVETCACLRLLARLHYIMGDYAEALSNQQKAVLMSERVMGTEHPNTIQEYMHLALYCFASSQLSTALSLLYRARYLMLLVFGEDHPEMALLDNNIGLVLHGVMEYDLSLRFLENALAVSTKYHGPKALKVALSHHLVARVYESKAEFRSALQHEKEGYTIYKTQLGEDHEKTKESSEYLKCLTQQAVALQRTMNEIYRNGSSANIPPLKFTAPSMASVLEQLNVINGILFIPLSQKDLENLKAEVARRHQLQEASRNRDRAEEPMATEPAPAGAPGDLGSQPPAAKDPSPSVQG
B2: Structural maintenance of chromosomes protein 3 (other)
chain: MYIKQVIIQGFRSYRDQTIVDPFSSKHNVIVGRNGSGKSNFFYAIQFVLSDEFSHLRPEQRLALLHEGTGPRVISAFVEIIFDNSDNRLPIDKEEVSLRRVIGAKKDQYFLDKKMVTKNDVMNLLESAGFSRSNPYYIVKQGKINQMATAPDSQRLKLLREVAGTRVYDERKEESISLMKETEGKREKINELLKYIEERLHTLEEEKEELAQYQKWDKMRRALEYTIYNQELNETRAKLDELSAKRETSGEKSRQLRDAQQDARDKMEDIERQVRELKTKISAMKEEKEQLSAERQEQIKQRTKLELKAKDLQDELAGNSEQRKRLLKERQKLLEKIEEKQKELAETEPKFNSVKEKEERGIARLAQATQERTDLYAKQGRGSQFTSKEERDKWIKKELKSLDQAINDKKRQIAAIHKDLEDTEANKEKNLEQYNKLDQDLNEVKARVEELDRKYYEVKNKKDELQSERNYLWREENAEQQALAAKREDLEKKQQLLRAATGKAILNGIDSINKVLDHFRRKGINQHVQNGYHGIVMNNFECEPAFYTCVEVTAGNRLFYHIVDSDEVSTKILMEFNKMNLPGEVTFLPLNKLDVRDTAYPETNDAIPMISKLRYNPRFDKAFKHVFGKTLICRSMEVSTQLARAFTMDCITLEGDQVSHRGALTGGYYDTRKSRLELQKDVRKAEEELGELEAKLNENLRRNIERINNEIDQLMNQMQQIETQQRKFKASRDSILSEMKMLKEKRQQSEKTFMPKQRSLQSLEASLHAMESTRESLKAELGTDLLSQLSLEDQKRVDALNDEIRQLQQENRQLLNERIKLEGIITRVETYLNENLRKRLDQVEQELNELRETEGGTVLTATTSELEAINKRVKDTMARSEDLDNSIDKTEAGIKELQKSMERWKNMEKEHMDAINHDTKELEKMTNRQGMLLKKKEECMKKIRELGSLPQEAFEKYQTLSLKQLFRKLEQCNTELKKYSHVNKKALDQFVNFSEQKEKLIKRQEELDRGYKSIMELMNVLELRKYEAIQLTFKQVSKNFSEVFQKLVPGGKATLVMKKGDVEGSQSQDEGEGSGESERGSGSQSSVPSVDQFTGVGIRVSFTGKQGEMREMQQLSGGQKSLVALALIFAIQKCDPAPFYLFDEIDQALDAQHRKAVSDMIMELAVHAQFITTTFRPELLESADKFYGVKFRNKVSHIDVITAEMAKDFVEDDTTHG
B3: Huntingtin-interacting protein 1-related protein (other)
chain: MNSIKNVPARVLSRRPGHSLEAEREQFDKTQAISISKAINTQEAPVKEKHARRIILGTHHEKGAFTFWSYAIGLPLPSSSILSWKFCHVLHKVLRDGHPNVLHDCQRYRSNIREIGDLWGHLHDRYGQLVNVYTKLLLTKISFHLKHPQFPAGLEVTDEVLEKAAGTDVNNIFQLTVEMFDYMDCELKLSESVFRQLNTAIAVSQMSSGQCRLAPLIQVIQDCSHLYHYTVKLLFKLHSCLPADTLQGHRDRFHEQFHSLRNFFRRASDMLYFKRLIQIPRLPEGPPNFLRASALAEHIKPVVVIPEEAPEDEEPENLIEISTGPPAGEPVVVADLFDQTFGPPNGSVKDDRDLQIESLKREVEMLRSELEKIKLEAQRYIAQLKSQVNALEGELEEQRKQKQKALVDNEQLRHELAQLRAAQLEGERSQGLREEAERKASATEARYNKLKEKHSELVHVHAELLRKNADTAKQLTVTQQSQEEVARVKEQLAFQVEQVKRESELKLEEKSDQLEKLKRELEAKAGELARAQEALSHTEQSKSELSSRLDTLSAEKDALSGAVRQREADLLAAQSLVRETEAALSREQQRSSQEQGELQGRLAERESQEQGLRQRLLDEQFAVLRGAAAEAAGILQDAVSKLDDPLHLRCTSSPDYLVSRAQEALDAVSTLEEGHAQYLTSLADASALVAALTRFSHLAADTIINGGATSHLAPTDPADRLIDTCRECGARALELMGQLQDQQALRHMQASLVRTPLQGILQLGQELKPKSLDVRQEELGAVVDKEMAATSAAIEDAVRRIEDMMNQARHASSGVKLEVNERILNSCTDLMKAIRLLVTTSTSLQKEIVESGRGAATQQEFYAKNSRWTEGLISASKAVGWGATQLVEAADKVVLHTGKYEELIVCSHEIAASTAQLVAASKVKANKHSPHLSRLQECSRTVNERAANVVASTKSGQEQIEDRDTMDFSGLSLIKLKKQEMETQVRVLELEKTLEAERMRLGELRKQHYVLAGASGSPGEEVAIRPSTAPRSVTTKKPPLAQKPSVAPRQDHQLDKKDGIYPAQLVNY
B4: Heterogeneous nuclear ribonucleoprotein U-like protein 1 (other)
chain: MDVRRLKVNELREELQRRGLDTRGLKAELAERLQAALEAEEPDDERELDADDEPGRPGHINEEVETEGGSELEGTAQPPPPGLQPHAEPGGYSGPDGHYAMDNITRQNQFYDTQVIKQENESGYERRPLEMEQQQAYRPEMKTEMKQGAPTSFLPPEASQLKPDRQQFQSRKRPYEENRGRGYFEHREDRRGRSPQPPAEEDEDDFDDTLVAIDTYNCDLHFKVARDRSSGYPLTIEGFAYLWSGARASYGVRRGRVCFEMKINEEISVKHLPSTEPDPHVVRIGWSLDSCSTQLGEEPFSYGYGGTGKKSTNSRFENYGDKFAENDVIGCFADFECGNDVELSFTKNGKWMGIAFRIQKEALGGQALYPHVLVKNCAVEFNFGQRAEPYCSVLPGFTFIQHLPLSERIRGTVGPKSKAECEILMMVGLPAAGKTTWAIKHAASNPSKKYNILGTNAIMDKMRVMGLRRQRNYAGRWDVLIQQATQCLNRLIQIAARKKRNYILDQTNVYGSAQRRKMRPFEGFQRKAIVICPTDEDLKDRTIKRTDEEGKDVPDHAVLEMKANFTLPDVGDFLDEVLFIELQREEADKLVRQYNEEGRKAGPPPEKRFDNRGGGGFRGRGGGGGFQRYENRGPPGGNRGGFQNRGGGSGGGGNYRGGFNRSGGGGYSQNRWGNNNRDNNNSNNRGSYNRAPQQQPPPQQPPPPQPPPQQPPPPPSYSPARNPPGASTYNKNSNIPGSSANTSTPTVSSYSPPQPSYSQPPYNQGGYSQGYTAPPPPPPPPPAYNYGSYGGYNPAPYTPPPPPTAQTYPQPSYNQYQQYAQQWNQYYQNQGQWPPYYGNYDYGSYSGNTQGGTSTQ
B5: Structural maintenance of chromosomes protein 1A (other)
chain: MGFLKLIEIENFKSYKGRQIIGPFQRFTAIIGPNGSGKSNLMDAISFVLGEKTSNLRVKTLRDLIHGAPVGKPAANRAFVSMVYSEEGAEDRTFARVIVGGSSEYKINNKVVQLHEYSEELEKLGILIKARNFLVFQGAVESIAMKNPKERTALFEEISRSGELAQEYDKRKKEMVKAEEDTQFNYHRKKNIAAERKEAKQEKEEADRYQRLKDEVVRAQVQLQLFKLYHNEVEIEKLNKELASKNKEIEKDKKRMDKVEDELKEKKKELGKMMREQQQIEKEIKEKDSELNQKRPQYIKAKENTSHKIKKLEAAKKSLQNAQKHYKKRKGDMDELEKEMLSVEKARQEFEERMEEESQSQGRDLTLEENQVKKYHRLKEEASKRAATLAQELEKFNRDQKADQDRLDLEERKKVETEAKIKQKLREIEENQKRIEKLEEYITTSKQSLEEQKKLEGELTEEVEMAKRRIDEINKELNQVMEQLGDARIDRQESSRQQRKAEIMESIKRLYPGSVYGRLIDLCQPTQKKYQIAVTKVLGKNMDAIIVDSEKTGRDCIQYIKEQRGEPETFLPLDYLEVKPTDEKLRELKGAKLVIDVIRYEPPHIKKALQYACGNALVCDNVEDARRIAFGGHQRHKTVALDGTLFQKSGVISGGASDLKAKARRWDEKAVDKLKEKKERLTEELKEQMKAKRKEAELRQVQSQAHGLQMRLKYSQSDLEQTKTRHLALNLQEKSKLESELANFGPRINDIKRIIQSREREMKDLKEKMNQVEDEVFEEFCREIGVRNIREFEEEKVKRQNEIAKKRLEFENQKTRLGIQLDFEKNQLKEDQDKVHMWEQTVKKDENEIEKLKKEEQRHMKIIDETMAQLQDLKNQHLAKKSEVNDKNHEMEEIRKKLGGANKEMTHLQKEVTAIETKLEQKRSDRHNLLQACKMQDIKLPLSKGTMDDISQEEGSSQGEDSVSGSQRISSIYAREALIEIDYGDLCEDLKDAQAEEEIKQEMNTLQQKLNEQQSVLQRIAAPNMKAMEKLESVRDKFQETSDEFEAARKRAKKAKQAFEQIKKERFDRFNACFESVATNIDEIYKALSRNSSAQAFLGPENPEEPYLDGINYNCVAPGKRFRPMDNLSGGEKTVAALALLFAIHSYKPAPFFVLDEIDAALDNTNIGKVANYIKEQSTCNFQAIVISLKEEFYTKAESLIGVYPEQGDCVISKVLTFDLTKYPDANPNPNEQ

For the experiment, the target named is T1, HA-PTEN (human, UniProt P60484 1-403).
T1 construct: Expressed in DU145 cells and immunoprecipitated with anti-PTEN antibody for mass spectrometry; also called exogenous PTEN; pcDNA3-HA-PTEN; not shown: HA tag
The experiment in a line: anti-PTEN immunoprecipitation from DU145 cells transfected with HA-PTEN, SDS-PAGE, mass-spectrometric peptide sequencing of the bands (association in the precipitate). An excerpt: FIG. 2A is a Western blot. Lysates from DU145 cells transfected with HA-PTEN were immunoprecipitated with an anti-PTEN antibody followed by mass-spectrometric peptide sequencing. WWP1 and NEDD4-1 were identified.
In order to identify the E3 ligases that induce PTEN atypical K27-linked poly-ubiquitination, exogenous PTEN was immunoprecipitated from DU145 cells, followed by identification of the proteins that interacted with PTEN by mass spectrometry (FIG. 2A; FIG. 18).
Consider B1, for which the binding result is listed as “binds”.
For B2, the binding result is recorded as “binds”.
In the case of B3, the binding result is reported as “binds”.
Regarding B4, the binding result is on record as “binds”.
For B5 the value was “binds”.
